Assay results: the supplement of paper PMC12855868

B1: library; numbered along this chain (parent)
chain: MAAAGGARLLRAASAVLGGPAGRWLHHAGSRAGSSGLLRNRGPGGSAEASRSLSVSARARSSSEDKITVHFINRDGETLTTKGKVGDSLLDVVVENNLDIDGFGACEGTLACSTCHLIFEDHIYEKLDAITDEENDMLDLAYGLTDRSRLGCQICLTKSMDNMTVRVPETVADARQSIDVGKTS

Variants of: B1
Experiment: scaled log2 fold change in cell abundance, elesclomol vs control (0 = silent mean, 1 = nonsense mean) (scaled log2 ratio); higher = higher viability under elesclomol (loss of FDX1 cuproptosis function)
Details: glucose 10 mM
[1] = with ABC1 FDX1 KO, elesclomol 5 nM, 14 days
[2] = with HEK293T FDX1 KO, elesclomol 40 nM, 11 days
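Further: variant abundance is its share of total variant reads in each endpoint sample, from next-generation sequencing of the integrated ORF PCR-amplified out of genomic DNA.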

| Variant | scaled log2 fold change [1] | scaled log2 fold change [2] |
| --- | --- | --- |
| MAAAGGARLLRAASAVLGGPAGRWLHHAGSRAGSSGLLRNRGPGGSAEASRSLSVSARARSSSEDKITVHFINRDGETLTTKGKVGDSLLDVVVENNWDIDGFGACEGTLACSTCHLIFEDHIYEKLDAITDEENDMLDLAYGLTDRSRLGCQICLTKSMDNMTVRVPETVADARQSIDVGKTS | 0.476 | 0.189 |
| MAAAGGARLLRAASAVLGGPAGRWLHHAGSRAGSSGLLRNRGPGGSAEASRSLSVSARARSSSEDKITVHFINRDGETLTTKGKVGDSLLDVVVENNYDIDGFGACEGTLACSTCHLIFEDHIYEKLDAITDEENDMLDLAYGLTDRSRLGCQICLTKSMDNMTVRVPETVADARQSIDVGKTS | 0.000145 | -0.257 |
| MAAAGGARLLRAASAVLGGPAGRWLHHAGSRAGSSGLLRNRGPGGSAEASRSLSVSARARSSSEDKITVHFINRDGETLTTKGKVGDSLLDVVVENNHDIDGFGACEGTLACSTCHLIFEDHIYEKLDAITDEENDMLDLAYGLTDRSRLGCQICLTKSMDNMTVRVPETVADARQSIDVGKTS | 0.186 | 0.86 |
| MAAAGGARLLRAASAVLGGPAGRWLHHAGSRAGSSGLLRNRGPGGSAEASRSLSVSARARSSSEDKITVHFINRDGETLTTKGKVGDSLLDVVVENNSDIDGFGACEGTLACSTCHLIFEDHIYEKLDAITDEENDMLDLAYGLTDRSRLGCQICLTKSMDNMTVRVPETVADARQSIDVGKTS | 0.421 | -0.0745 |
| MAAAGGARLLRAASAVLGGPAGRWLHHAGSRAGSSGLLRNRGPGGSAEASRSLSVSARARSSSEDKITVHFINRDGETLTTKGKVGDSLLDVVVENNIDIDGFGACEGTLACSTCHLIFEDHIYEKLDAITDEENDMLDLAYGLTDRSRLGCQICLTKSMDNMTVRVPETVADARQSIDVGKTS | -0.0119 | -0.482 |
| MAAAGGARLLRAASAVLGGPAGRWLHHAGSRAGSSGLLRNRGPGGSAEASRSLSVSARARSSSEDKITVHFINRDGETLTTKGKVGDSLLDVVVENNFDIDGFGACEGTLACSTCHLIFEDHIYEKLDAITDEENDMLDLAYGLTDRSRLGCQICLTKSMDNMTVRVPETVADARQSIDVGKTS | -0.0232 | -0.902 |
| MAAAGGARLLRAASAVLGGPAGRWLHHAGSRAGSSGLLRNRGPGGSAEASRSLSVSARARSSSEDKITVHFINRDGETLTTKGKVGDSLLDVVVENNGDIDGFGACEGTLACSTCHLIFEDHIYEKLDAITDEENDMLDLAYGLTDRSRLGCQICLTKSMDNMTVRVPETVADARQSIDVGKTS | 0.225 | 0.327 |
| MAAAGGARLLRAASAVLGGPAGRWLHHAGSRAGSSGLLRNRGPGGSAEASRSLSVSARARSSSEDKITVHFINRDGETLTTKGKVGDSLLDVVVENNPDIDGFGACEGTLACSTCHLIFEDHIYEKLDAITDEENDMLDLAYGLTDRSRLGCQICLTKSMDNMTVRVPETVADARQSIDVGKTS | -0.901 | 0.205 |
| MAAAGGARLLRAASAVLGGPAGRWLHHAGSRAGSSGLLRNRGPGGSAEASRSLSVSARARSSSEDKITVHFINRDGETLTTKGKVGDSLLDVVVENNMDIDGFGACEGTLACSTCHLIFEDHIYEKLDAITDEENDMLDLAYGLTDRSRLGCQICLTKSMDNMTVRVPETVADARQSIDVGKTS | 0.0485 | 0.18 |
| MAAAGGARLLRAASAVLGGPAGRWLHHAGSRAGSSGLLRNRGPGGSAEASRSLSVSARARSSSEDKITVHFINRDGETLTTKGKVGDSLLDVVVENNRDIDGFGACEGTLACSTCHLIFEDHIYEKLDAITDEENDMLDLAYGLTDRSRLGCQICLTKSMDNMTVRVPETVADARQSIDVGKTS | 0.136 | 0.607 |
| MAAAGGARLLRAASAVLGGPAGRWLHHAGSRAGSSGLLRNRGPGGSAEASRSLSVSARARSSSEDKITVHFINRDGETLTTKGKVGDSLLDVVVENNQDIDGFGACEGTLACSTCHLIFEDHIYEKLDAITDEENDMLDLAYGLTDRSRLGCQICLTKSMDNMTVRVPETVADARQSIDVGKTS | 0.167 | -0.327 |
| MAAAGGARLLRAASAVLGGPAGRWLHHAGSRAGSSGLLRNRGPGGSAEASRSLSVSARARSSSEDKITVHFINRDGETLTTKGKVGDSLLDVVVENNVDIDGFGACEGTLACSTCHLIFEDHIYEKLDAITDEENDMLDLAYGLTDRSRLGCQICLTKSMDNMTVRVPETVADARQSIDVGKTS | -0.0512 | -0.662 |
| MAAAGGARLLRAASAVLGGPAGRWLHHAGSRAGSSGLLRNRGPGGSAEASRSLSVSARARSSSEDKITVHFINRDGETLTTKGKVGDSLLDVVVENNNDIDGFGACEGTLACSTCHLIFEDHIYEKLDAITDEENDMLDLAYGLTDRSRLGCQICLTKSMDNMTVRVPETVADARQSIDVGKTS | 0.309 | 0.504 |
| MAAAGGARLLRAASAVLGGPAGRWLHHAGSRAGSSGLLRNRGPGGSAEASRSLSVSARARSSSEDKITVHFINRDGETLTTKGKVGDSLLDVVVENNKDIDGFGACEGTLACSTCHLIFEDHIYEKLDAITDEENDMLDLAYGLTDRSRLGCQICLTKSMDNMTVRVPETVADARQSIDVGKTS | 0.356 | 0.0251 |
| MAAAGGARLLRAASAVLGGPAGRWLHHAGSRAGSSGLLRNRGPGGSAEASRSLSVSARARSSSEDKITVHFINRDGETLTTKGKVGDSLLDVVVENNTDIDGFGACEGTLACSTCHLIFEDHIYEKLDAITDEENDMLDLAYGLTDRSRLGCQICLTKSMDNMTVRVPETVADARQSIDVGKTS | -0.168 | 0.331 |
| MAAAGGARLLRAASAVLGGPAGRWLHHAGSRAGSSGLLRNRGPGGSAEASRSLSVSARARSSSEDKITVHFINRDGETLTTKGKVGDSLLDVVVENNLAIDGFGACEGTLACSTCHLIFEDHIYEKLDAITDEENDMLDLAYGLTDRSRLGCQICLTKSMDNMTVRVPETVADARQSIDVGKTS | 0.0591 | -1.37 |
